Among the data in US6403087 are Concentration of Cytotoxic Agent (ng/ml) Resulting in 50% Growth Inhibition of HT29 cells, in the presence of 5 µg/ml hu-IgG control, % Inh (Percent Inhibition) of mLT-β-R-Fc binding and MFCI (Mean Fluorescence Channel No.) of bound mLT-β-R-Fc values, retold here.

Experiment [1] deals with surface TNF receptors on HT29 cells. Nature of the experiment: cell-based or functional assay.
Experiment [2] addresses murine surface LT ligand on PMA-activated TIMI-4 cells (mouse) (UniProt P09225). Nature of the experiment: FACS on TIMI-4 cells; mAb at 10.0 µg/ml preincubated, washed, then 1 µg/ml mLT-β-R-Fc.
The target is the same in experiment [3]. The experiment can be described thus: FACS on TIMI-4 cells; mAb at 0.01 µg/ml preincubated, washed, then 1 µg/ml mLT-β-R-Fc.
The target is the same in experiment [4]. The experiment can be described thus: FACS on TIMI-4 cells; mAb at 0.3 µg/ml preincubated, washed, then 1 µg/ml mLT-β-R-Fc.
Experiment [5] has the same target. Nature of the experiment: FACS on TIMI-4 cells; mAb at 100.0 µg/ml preincubated, washed, then 1 µg/ml mLT-β-R-Fc.
Experiment [6] has the same target. Nature of the experiment: FACS on TIMI-4 cells; mAb at 0.03 µg/ml preincubated, washed, then 1 µg/ml mLT-β-R-Fc.
Experiment [7] shares this target. The experiment can be described thus: FACS on TIMI-4 cells; mAb at 0.1 µg/ml preincubated, washed, then 1 µg/ml mLT-β-R-Fc.
The target is the same in experiment [8]. The experiment can be described thus: FACS on TIMI-4 cells; mAb at 30.0 µg/ml preincubated, washed, then 1 µg/ml mLT-β-R-Fc.
Experiment [9] shares this target. Nature of the experiment: FACS on TIMI-4 cells; mAb at 1.0 µg/ml preincubated, washed, then 1 µg/ml mLT-β-R-Fc.
Experiment [10] has the same target. Nature of the experiment: FACS on TIMI-4 cells; mAb at 3.0 µg/ml preincubated, washed, then 1 µg/ml mLT-β-R-Fc.

Sequence of murine surface LT ligand on PMA-activated TIMI-4 cells (mouse) (P09225 34-202, chain 1 of 2): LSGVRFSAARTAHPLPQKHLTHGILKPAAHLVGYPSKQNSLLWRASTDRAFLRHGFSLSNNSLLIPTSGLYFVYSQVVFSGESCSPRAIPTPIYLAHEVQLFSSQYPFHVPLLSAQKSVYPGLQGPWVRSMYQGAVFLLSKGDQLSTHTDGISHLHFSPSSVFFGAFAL
Sequence of murine surface LT ligand on PMA-activated TIMI-4 cells (mouse) (P41155 whole entry, chain 2 of 2, further chain): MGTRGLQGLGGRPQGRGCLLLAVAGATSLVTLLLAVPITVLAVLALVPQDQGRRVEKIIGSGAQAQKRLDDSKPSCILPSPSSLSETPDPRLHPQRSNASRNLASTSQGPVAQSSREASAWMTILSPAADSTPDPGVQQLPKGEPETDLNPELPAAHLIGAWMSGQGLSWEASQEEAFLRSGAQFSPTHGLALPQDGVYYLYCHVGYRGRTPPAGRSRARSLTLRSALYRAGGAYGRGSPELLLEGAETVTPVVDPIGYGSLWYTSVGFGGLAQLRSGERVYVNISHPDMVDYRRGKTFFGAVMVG
Sequence of hTNF (P01375 77-233 limits assumed): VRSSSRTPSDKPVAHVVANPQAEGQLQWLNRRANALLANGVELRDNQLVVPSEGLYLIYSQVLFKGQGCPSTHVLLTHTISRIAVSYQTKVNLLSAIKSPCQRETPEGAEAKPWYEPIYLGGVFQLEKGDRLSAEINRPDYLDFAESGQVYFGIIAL

Consider “hLT-α (from UniProt P01374 35-205) (ligand)”, for which the Concentration of Cytotoxic Agent (ng/ml) Resulting in 50% Growth Inhibition of HT29 cells, in the presence of 5 µg/ml hu-IgG control in [1] came to 3 ng/mL.

“hTNF (from UniProt P01375 77-233) (ligand)”: in [1], the Concentration of Cytotoxic Agent (ng/ml) Resulting in 50% Growth Inhibition of HT29 cells, in the presence of 5 µg/ml hu-IgG control came out at 0.08 ng/mL.

For hamster anti-mLT-α mAb AF.B3 (antibody), the % Inh (Percent Inhibition) of mLT-β-R-Fc binding in experiment [2] worked out at 0%; in [3], 2%; in [4] it was 2%; in experiment [5] it was 0%; in [6] it was 0%; in [7] it was 0%. In addition, the % Inh (Percent Inhibition) of mLT-β-R-Fc binding in experiment [8], in experiment [9] and in [10] was 0% in each case. Further, the MFCI (Mean Fluorescence Channel No.) of bound mLT-β-R-Fc in [2] is 95 channel no; in experiment [3], 84 channel no; in experiment [4], 84 channel no; in [5] it was 92 channel no; in experiment [6], 86 channel no; in experiment [7], 86 channel no. Besides, the values for the MFCI (Mean Fluorescence Channel No.) of bound mLT-β-R-Fc in experiment [8], in experiment [9] and in experiment [10] were 94 channel no, 89 channel no and 88 channel no, respectively.

For “hamster anti-mouse LT-α/β mAb BB.F6 (antibody)”, the % Inh (Percent Inhibition) of mLT-β-R-Fc binding worked out at 94% in experiment [2]; 18% in [3]; 62% in experiment [4]; 98% in [5]; 23% in [6]; 44% in experiment [7]. The results for the % Inh (Percent Inhibition) of mLT-β-R-Fc binding in experiment [8], in experiment [9] and in experiment [10] were 95%, 71% and 86%, respectively. For the same substance, the MFCI (Mean Fluorescence Channel No.) of bound mLT-β-R-Fc in experiment [2] is 11 channel no; in experiment [3] it was 71 channel no; in experiment [4] it was 36 channel no; in experiment [5] it was 8 channel no; in experiment [6], 67 channel no; in [7], 51 channel no. In addition, the MFCI (Mean Fluorescence Channel No.) of bound mLT-β-R-Fc in experiment [8] was 10 channel no; in experiment [9] it was 29 channel no; in [10], 17 channel no.
